Experimental data from the DeepSol protein solubility set.

test: soluble on expression in E. coli; label from the status in PepcDB or PDB records

Question: Which “soluble on expression in E. coli” value does the source give for “MGHHHHHHSHMPQFSPSYSFPVQIYYEDTDFSGVVYHPNFLKYFERAREHVIGAEQLRNLWQQQQLGFAVYRSDMLCHEGVEFADIIDIRTKFYFESKYRTVWHQEIWRPNGKKPAVTATIEMVCMNQARQLAPMPAELITQLSLGM” here?
Answer: Its value is “soluble”.

Question: Which “soluble on expression in E. coli” value does the source give for “MAEVKKKIKPGAIEAHAEELAIVVHYEVQEVSTQSDGSQKVISKEPGEKKISVKSLSEKTNVPLLATEIIEKCKLIHPSKAGQVEELLYQLQSRGGGGGADAKAKPAAKPAAASPAKSAAAAPPPPSNVAQSPQKPGQPPSTPSKKPPAAAGAPAPMLNGKPAPKAQSRLDAEAEERADLQARRQAQAMQIFKMQQKQYEQAYMNKLDEYIEGLYEEEMPKKVRATGMIAQLFRNTENFEVLLSHETLMQTLSRVLREDGKRSIDLCTNIISVFFSVSNFTQFHGLIMQNQVGALTMDLIDLEIKRTEHRASEENISPAMVAQKALEASQGQVTLSEREKKLLALIQKQDRLLYIAFYMLLNLSEDIEVERKMKKKNIVVYLVKMLERSNVELLILATTFLKKLSIYKENKETMSSCKIVEKLMKFVPVLNDVLLMSVLRLLHNLSFDHSLRDDMVKHGLIPKAVELMMVPRFQPVVLGLLYHISMEDKYKSLFTFTDCLNKMYDMLMRVQADLRNTPELIALAVNLTQNPRNAETMCEGDRFDKMMRRAFQTCDELMFKVLRNLSQQEGINIKRRFGPYVEQLVTLLRAPDITAELFVEVLGCLANLYIPEFDFLGLVRKHDLLTFLATYAQPGAVDDDILLEVVMFVGVLCNEGTAPLIVSSGLVTTLFQLMGDKKEDDEFVLQIAFTFHKFLLHDETRASLLTNTQQVVFYLVDLLQDKNKEVRRVADQCLDIIMDTDEEWAVQIRNLKFESFNQEWLDVVSQPAGGMAAHAGRQRNGYDDETEVDYSGGDGYYNIGDQRLVADFDDLGTNGGTWGPGDEGLQGGYEGNYDGYDEEELRQGYAM” here?
Answer: The value was “not soluble”.

Question: For “MGHHHHHHSHMAAAVAMETDDAGNRLRFQLELEFVQCLANPNYLNFLAQRGYFKDKAFVNYLKYLLYWKDPEYAKYLKYPQCLHMLELLQYEHFRKELVNAQCAKFIDEQQILHWQHYSRKRMRLQQALAEQQQQNNTSGK”, which “soluble on expression in E. coli” value is on record?
Answer: Its value is “soluble”.

Question: With “VPVQLADLKEVRIAYQSIGSESDPALLLVMGLGGQLIHWPDEVVVALCQQGYRVIRYDNRDVGLSTWVQQPADANLTVEVLRYKLGLPVSSPYSLTDMADDALGLMDALQIRQFHVLGASMGGMIAQHLADLAPSRVESLTLIMTSSGAQGLPMPNAALLQLLARRGAPDREVALEQQADLLAALGSPQVKDDREQLLHQAAVSYDRAFNPEGVKRQIMAILAEPSRVELLNRLRLPVLVVHGTADPLLPVMHGVHVAAHIQGSQLRLIPGLAHRFQEAFKAPLLGAVLPYLKA” as the sequence, how does the “soluble on expression in E. coli” value read?
Answer: Its value is “not soluble”.

Question: Which “soluble on expression in E. coli” value does the source give for “MGSDKIHHHHHHMGINKFNHEGYHDPTPHEALTNIMKKEKAEKKSAFKPLVYICSPYSGDVEGNIKKARSFCRFALDQNCIPIAPHLMFPQFMDDENPEERELAIFMDIVLMGKCSEVWVLGNTISTGMAREIEVAKKRRQTVRYFSPEHEEVESL” here?
Answer: The value was “not soluble”.

Question: With “MGSDKIHHHHHHAEEQVYSESEVSTVLSKLEKEAISEAAAEQYTVVDRKEDAWGMKHLKLEKQTEGVTVDSDNVIIHLDRNGAVTSVTGNPVDQVVKIQSVDAIGEEGVKKIIASDNPETKDLVFLAIDKRVNNEGQLFYKVRVTSSPTGDPVSLVYKVNATDGTIMEKQDLTEHVGSEVTLKNSFQVAFNVPVEKSNTGIALHGTDNTGVYHAVVDGKNNYSIIQAPSLVALNQNAVDAYTHGKFVKTYYEDHFQRHSIDDRGMPILSVVDEQHPDAYDNAFWDGKAMRYGETSTPTGKTYASSLDVVGHEMTHGVTEHTAGLEYLGQSGALNESYSDLMGYIISGASNPEIGADTQSVDRKTGIRNLQTPSKHGQPETMAQYDDRARYKGTPYYDQGGVHYNSGIINRIGYTIIQNLGIEKAQTIFYSSLVNYLTPKAQFSDARDAMLAAAKVQYGDEAASVVSAAFNSAGIGAKEDIQVNQPSESVLVNE” as the sequence, how does the “soluble on expression in E. coli” value read?
Answer: Its value is “not soluble”.

Question: With “MTEHLLAMNQKLKNPDEALSLFGNQDSFLKLMEKDLNLNIITRGETIYVSGDDESFQIADRLLGSLLALIRKGIEISERDVIYAIKMAKKNELEYFESMYEEEITKNAKGKSIRVKTMGQREYVAAMKRNDLVFGIGPAGTGKTYLAVVKAVHALKNGHIKKIILTRPAVEAGESLGFLPGDLKEKVDPYLRPLYDALHDVLGADHTERLMERGIIEIAPLAYMRGRTLDDAYVILDEAQNTTPAQMKMFLTRLGFSSKMIITGDVSQIDLPKGVKSGLAVAKEMLKGIDGISMIELDQTDVVRHPLVAKIIEAYDKQN” as the sequence, how does the “soluble on expression in E. coli” value read?
Answer: Its value is “not soluble”.

Question: Which “soluble on expression in E. coli” value does the source give for “MGSDKIHHHHHHMSDIELLETLAGTDQPRVMATIIHVEGSSYRKEGAMMLFQEDGTQVGLLSGGCLETDLTIKAQKVWQEQLPRTVVYDLSSEDDLSWGQGSGCNGTISVLLEPVDLKLRQHLKRVYDYLCAGKSVFHVKKLSTSGAVLEYAFILDESVYFGEWHSGHPVEWIRKIDENEEPLMFTHIYSPKERLIIFGAGPDVPPLVTFASNVGFYTVVTDWRPNQCEKHFFPDADEIIVDFPADFLRKFLIRPDDFVLIMTHHFQKDQEILHFLLEKELRYIGILGSKERTRRLLQNRKPPDHLYSPVGLSIDAQGPEEIAISIVAQLIQLIRSRKQASSPFSYLFQPESCKH” here?
Answer: Its value is “not soluble”.

Question: For “MGSDKIHHHHHHMKRKTKLDKKSKWVLDMKFGVSSLVFLPESLTSSMEKIAEHNFDAWEIVCEGTHYLSPKNIKYLMELRDRYEVEIVVHAPFSDLNPASMNERVRKLTVECIRDAIEGAFELDSEVVVVHPGYIPELWSNYVSEILDNNFSTLSEIVEIAEDYGIKIGLENMPNFRGVLGITPESLLEIVKDIDSKNLGITFDIGHANTAGNPAEFVEKLQNIGIGIIHVHAHDNNGYDDEHLKIGEGNINFIEVLEKLKEIGYDGVISIENKNIRDAVKSKEILKEYLEIVNEKVAEKEKIEE”, which “soluble on expression in E. coli” value is on record?
Answer: The value was “not soluble”.

Question: For “MTKINVPLETSNKTTSDLEKKKPFSVLLMGSDARPGETNGRADTIILATANKQQNAVEMVSIPRDTKVDYGNGDIGKINASYSNGGPSGTVSAVEKLMPGVPVDYFISINMEGFKDLVDAVGGITVYNDIDLTEVNSKFVKGNITLNGTDALQYVRIRHEDPRGDFGRQDRQRDVIIGIANKVISSSGVSNFESIMKAVGDNFQTNMTLTDITSMATNYSSVLKNVDSQELKGEGEMIYSESYGFDLYYFAPDETDLERVINMFKKSLDITELEHHHHHH”, which “soluble on expression in E. coli” value is on record?
Answer: Its value is “soluble”.

Question: With “MSALLPIINRLILQSPDSRSELAAFAGKTLTLNIAGLKLAGRITEDGLLSAGNGFADTEITFRNSAVQKILQGGEPGAGDIGLEGDLILGIAVLSLLGSLRSRASDELARIFGTQADIGSRAADIGHGIKQIGRNIAEQIGGFSRESESANIGNEALADCLDEISRLRDGVERLNERLDRLERDIWID” as the sequence, how does the “soluble on expression in E. coli” value read?
Answer: Its value is “not soluble”.

Question: With “MSLTIITMIRFYGFSVMLENEQLKIEYGLFNKKKVTVPTKRLQAVVERQSYIRRLFGYTAIHFIITSDFENKKIEDDDNDSGSVPILPFIKRDKAYQIIQNLVPDLSYQQVNEGMPLSGFHEGHHHHHH” as the sequence, how does the “soluble on expression in E. coli” value read?
Answer: Its value is “not soluble”.

Question: For “MVMKLIKRSLLLLGAVLLITLPAYSQNDDIFEDDIYTSRKEIRKQNQVKDWQNQEDGYGDDTEYTVASDRDIDAYNRRDGQSYDGKKLSKDKKRDSTRSSVPGRYSRRLARFYKPNTIVISGADNVYVTDDGEYFVYGDEYYDDASSVNIYINSPWCDPFPYTSWYPSFSGWYNYTWNYPWFYYGSHIGWGGYYPGYNWYWSYYYDPFYNPYGIGMGWGYPYGWGSYYGWGGYPGVIHHYHHYPKKTYSNGQHSGAYYSYGRPNRIKGGTSGAKLGTGRYDRIQNSSSQKNKFGLQSNKPNNNLQNVKSGRTGRANRDRNIETVTPNNGQKQNRPVFQQNQSGNDRPTGRNIRSERQGENNDRTFSTPSRSNSNGGFSTPSRSSSGSMSGGGGRSGRGRN”, which “soluble on expression in E. coli” value is on record?
Answer: Its value is “not soluble”.

Question: Which “soluble on expression in E. coli” value does the source give for “MGSDKIHHHHHHVSTQFQGVIPPVITPRHADGSIDTSSLKNVTRHLIDGGVSGLFVLGSSGEVPYMTNAERELVVSTIADANASVGARAVPLIVGANEQTTNRVIEEAKKVIGLGADAIVVTSMYYAIGNAAETETHFRSIHAAVDKPIFAYDVPVRTHFKLPTDLLVRLGRDGVIAGVKDSSGDDVSFRQLLLEAKDIPDFDIFTGHEVVVDGALLGGAQGVVPGLGNVDPAGYRRLFDAAQAGDWATAAREQDRLADLFEIVYAPNGRVSGGAAGLGAFKTALQLMGVIESNTMSQPMLSLNDDEAAAIRTILERNGLV” here?
Answer: Its value is “not soluble”.

Question: Which “soluble on expression in E. coli” value does the source give for “SMGAGGGGSAEQLDALVKKDKVVVFLKGTPEQPQCGFSNAVVQILRLHGVRDYAAYNVLDDPELRQGIKDYSNWPTIPQVYLNGEFVGGCDILLQMHQNGDLVEELKKLGIHSALLDE” here?
Answer: Its value is “soluble”.

Question: For “MGSSHHHHHHSSGLVPRGSHMAMVELSGTVTFWDTSNEAEKATYQALAEGFEKEHPKVDVKYVNVPFGEANAKFKNAAGGNSGAPDVMRTEVAWVADFASIGYLAPLDGTPALDDGSDHLPQAAASTRYEGKTYAVPQVIDTLALFYNKELLTKAGVEVPGSVAELKTAAAEITEKTGATGLYLRGDDPYWFLPYLYGEGGDLVDEKNKTVTVDDEAGVRAYRVIKDLVDSKAAITDASDGWNNMQNAFKSGKVAMMVNGPWAIEDVKAGARFKDAGNLGVAPVPAGSAGQGSPQGGWNLSVYAGSKNLDASYAFVKYMSSAKVQQQTTEKLSLLPTRTSVYEVPSVADNEMVKFFKPAVDKAVERPWIAEGNALFEPIRLQMANVLSGETSPDEAAANTGDAYRKLLKDYK”, which “soluble on expression in E. coli” value is on record?
Answer: The value was “soluble”.

Question: With “MGSDKIHHHHHHMTKNKLNQNSYELEKVKERIEQILSQFFPEQIMKDLPLYGKMLRVRLSILSFKNRGVEIGEDAISSLAALELVHLASLLHDDVIDGARFRRGKETINFMYGDKAAVAAGDLVLVSAFHTVEEIGNNKLRRAFLNVIGKMSEAELIEQLSRYKPITKEEYLRIVEGKSGALFGLALQLPALLEGELGEDLYNLGVTIGTIYQMFDDIMDFAGMEKIGKDGFLDLKNGVASFPLVTAMEKFPEARQMFENRDWSGLMSFMREKGILKECEETLKVLVKNVIIENSWLRDFVDGIFKIKISS” as the sequence, how does the “soluble on expression in E. coli” value read?
Answer: Its value is “not soluble”.

Question: With “MMPFEAVIGLEVHVQLNTKTKIFCSCSTSFGESPNSNTCPVCLGLPGALPVLNKEVVKKAIQLGTAIEANINQYSIFARKNYFYPDLPKAYQISQFEVPIVSDGKLEIDTKEGAKIVRIERAHMEEDAGKNIHEGSYSLVDLNRACTPLLEIVSKPDMRNSEEAIAYLKKLHAIVRFIGISDANMQEGNFRCDANVSIRPKGDEKLYTRVEIKNLNSFRFIAKAIEYEIERQSAAWENGRYNEEVVQETRLFDTHKGITLSMRNKEESADYRYFKDPDLYPVFIDEKLLKEAQKINELPSAKKIRYMKDFNLKEDDANLLVSDPLLAQYFESMLHLGVKAKTSVTWLCVELLGRLKAEITLENCGVSTHMLGALAKRIDEGKISGKSAKDVLDKLLEEQGGDVDALIEQMGLSQVNDTEAIVKVIEEVLKNNADKVLEYKSGKDKLFGFFVGQAMKNLKGANPSVVNAILKEKLG” as the sequence, how does the “soluble on expression in E. coli” value read?
Answer: The value was “not soluble”.

Question: Which “soluble on expression in E. coli” value does the source give for “GPGSMGRQKSRNLWNDGEGTKSVCRPQQVTVAKGWRVTPDLLPAKPLAPRRRKYAPIRPNNRDAVAIPLGGQSYNPLDEEHQEALAKAVRQLSKKKLKDEKFVKMMTMGRDKKYTGNLSADKTWEEEVQETEPATAKTPKKKRTKTAPASTGASSSAPSSAPSPVTHNGNKAKHEKVAAAPAAVAKNGKTAKKQKKKTKKATAEEAKRAMTHRRHPKRGVVAKETDELDVLLAAHKATACKREVARQKRRAAKKANLAIKHYGRHYHTPLVLDVTPSDKLVGSLRHLSGGYVHPALERMKSLEERNLVPARMRHTYNKRKVLKPKGEVRVKREEFGVMPMTGF” here?
Answer: Its value is “soluble”.

Question: For “GPGSMNHLAGKIHVVQTPEEGRRFSLEQVVLPVLGNGAERLVSPDGKMREASERLAQELQIEGLMKMKAAPPATYRRLVVRPRDFTYCLFDDERGWCWESNNEAPIRPQLWEDQEGIMRQLSPLSVATGKNIIARNGIRGAEQRSHFLKAARRSGMTCVLRMTLPRGSAVTSALREAFQFATLDPGVIFHLLR”, which “soluble on expression in E. coli” value is on record?
Answer: The value was “not soluble”.
